Measured values as given in patent publication US20260242735A1.

How the values were obtained:
Experiment in all cases: alanine scan, flow cytometry, HEK293-T
[1] = molecular target: human CD33 K52A (human) (UniProt P20138)
[2] = molecular target: human CD33 K146A (human) (UniProt P20138)
[3] = molecular target: human CD33 V82A (human) (UniProt P20138)
[4] = molecular target: human CD33 V136A (human) (UniProt P20138)
[5] = molecular target: human CD33 A182S (human) (UniProt P20138)
[6] = molecular target: human CD33 I176A (human) (UniProt P20138)
[7] = molecular target: human CD33 Q83A (human) (UniProt P20138)
[8] = molecular target: human CD33 D112A (human) (UniProt P20138)
Sequence of human CD33 D112A (human) (P20138 18-364 D112A limits assumed): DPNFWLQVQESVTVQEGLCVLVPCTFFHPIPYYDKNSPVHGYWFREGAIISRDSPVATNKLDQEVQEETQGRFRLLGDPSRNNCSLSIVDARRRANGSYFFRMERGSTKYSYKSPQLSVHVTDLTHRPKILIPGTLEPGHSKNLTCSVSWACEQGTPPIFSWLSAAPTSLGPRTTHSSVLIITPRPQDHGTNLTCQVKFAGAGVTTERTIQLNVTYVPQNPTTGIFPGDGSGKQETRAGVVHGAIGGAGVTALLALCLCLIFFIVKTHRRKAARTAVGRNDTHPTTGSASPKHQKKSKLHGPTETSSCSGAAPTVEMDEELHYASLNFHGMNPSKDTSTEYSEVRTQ

[9] = molecular target: human CD33 V138A (human) (UniProt P20138)
Sequence of human CD33 V138A (human) (P20138 18-364 V138A limits assumed): as the sequence (P20138 18-364 D112A limits assumed) above, with A95D, V121A counted along it

[10] = molecular target: human CD33 V106A (human) (UniProt P20138)
[11] = molecular target: human CD33 N76A (human) (UniProt P20138)
[12] = molecular target: human CD33 L134A (human) (UniProt P20138)
[13] = molecular target: human CD33 Q133A (human) (UniProt P20138)
Sequence of human CD33 Q133A (human) (P20138 18-364 Q133A limits assumed): as the sequence (P20138 18-364 D112A limits assumed) above, with A95D, Q116A counted along it

[14] = molecular target: human CD33 G151A (human) (UniProt P20138)
[15] = molecular target: human CD33 G64A (human) (UniProt P20138)
[16] = molecular target: human CD33 A183S (human) (UniProt P20138)
[17] = molecular target: human CD33 A74S (human) (UniProt P20138)
[18] = molecular target: human CD33 W167A (human) (UniProt P20138)
Sequence of human CD33 W167A (human) (P20138 18-364 W167A limits assumed): as the sequence (P20138 18-364 D112A limits assumed) above, with A95D, W150A counted along it

[19] = molecular target: human CD33 T75A (human) (UniProt P20138)
[20] = molecular target: human CD33 S195A (human) (UniProt P20138)
[21] = molecular target: human CD33 T185A (human) (UniProt P20138)
Sequence of human CD33 T185A (human) (P20138 18-364 T185A limits assumed): as the sequence (P20138 18-364 D112A limits assumed) above, with A95D, T168A counted along it

[22] = molecular target: human CD33 Y50A (human) (UniProt P20138)
[23] = molecular target: human CD33 F90A (human) (UniProt P20138)
[24] = molecular target: human CD33 C169A (human) (UniProt P20138)
Sequence of human CD33 C169A (human) (P20138 18-364 C169A limits assumed): as the sequence (P20138 18-364 D112A limits assumed) above, with A95D, C152A counted along it

[25] = molecular target: human CD33 R122A (human) (UniProt P20138)
Sequence of human CD33 R122A (human) (P20138 18-364 R122A limits assumed): as the sequence (P20138 18-364 D112A limits assumed) above, with A95D, R105A counted along it

[26] = molecular target: human CD33 T125A (human) (UniProt P20138)
[27] = molecular target: human CD33 K77A (human) (UniProt P20138)
Sequence of human CD33 K77A (human) (P20138 18-364 K77A limits assumed): as the sequence (P20138 18-364 D112A limits assumed) above, with K60A, A95D counted along it

[28] = molecular target: human CD33 Q80A (human) (UniProt P20138)
[29] = molecular target: human CD33 H57A (human) (UniProt P20138)
Sequence of human CD33 H57A (human) (P20138 18-364 H57A limits assumed): as the sequence (P20138 18-364 D112A limits assumed) above, with H40A, A95D counted along it

[30] = molecular target: human CD33 S54A (human) (UniProt P20138)
[31] = molecular target: human CD33 L187A (human) (UniProt P20138)
[32] = molecular target: human CD33 P155A (human) (UniProt P20138)
[33] = molecular target: human CD33 Y49A (human) (UniProt P20138)
[34] = molecular target: human CD33 L78A (human) (UniProt P20138)
Sequence of human CD33 L78A (human) (P20138 18-364 L78A limits assumed): as the sequence (P20138 18-364 D112A limits assumed) above, with L61A, A95D counted along it

[35] = molecular target: human CD33 G188A (human) (UniProt P20138)
Sequence of human CD33 G188A (human) (P20138 18-364 G188A limits assumed): as the sequence (P20138 18-364 D112A limits assumed) above, with A95D, G171A counted along it

[36] = molecular target: human CD33 H137A (human) (UniProt P20138)
Sequence of human CD33 H137A (human) (P20138 18-364 H137A limits assumed): as the sequence (P20138 18-364 D112A limits assumed) above, with A95D, H120A counted along it

[37] = molecular target: human CD33 R69A (human) (UniProt P20138)
[38] = molecular target: human CD33 W179A (human) (UniProt P20138)
[39] = molecular target: human CD33 D140A (human) (UniProt P20138)
[40] = molecular target: human CD33 P55A (human) (UniProt P20138)
[41] = molecular target: human CD33 I149A (human) (UniProt P20138)
[42] = molecular target: human CD33 E84A (human) (UniProt P20138)
[43] = molecular target: human CD33 G123A (human) (UniProt P20138)
[44] = molecular target: human CD33 F61A (human) (UniProt P20138)
[45] = molecular target: human CD33 T142A (human) (UniProt P20138)
Sequence of human CD33 T142A (human) (P20138 18-364 T142A limits assumed): as the sequence (P20138 18-364 D112A limits assumed) above, with A95D, T125A counted along it

Sequence of human CD33 A182S (human) (P20138 18-364 A182S limits assumed): as the sequence (P20138 18-364 D112A limits assumed) above, with A95D, A165S counted along it

## Refmab #7 (WM53) (antibody)
[1]
  Mean % WT Binding: 76.8 % WT binding
[2]
  Mean % WT Binding: 91.1 % WT binding
[3]
  Mean % WT Binding: 108 % WT binding
[4]
  Mean % WT Binding: 85.9 % WT binding
[5]
  Mean % WT Binding: 114 % WT binding
[6]
  Mean % WT Binding: 103 % WT binding
[7]
  Mean % WT Binding: 120 % WT binding
[8]
  Mean % WT Binding: 47.9 % WT binding
[9]
  Mean % WT Binding: 91 % WT binding
[10]
  Mean % WT Binding: 126 % WT binding
[11]
  Mean % WT Binding: 93.9 % WT binding
[12]
  Mean % WT Binding: 96.6 % WT binding
[13]
  Mean % WT Binding: 100 % WT binding
[14]
  Mean % WT Binding: 121 % WT binding
[15]
  Mean % WT Binding: 119 % WT binding
[16]
  Mean % WT Binding: 102 % WT binding
[17]
  Mean % WT Binding: 118 % WT binding
[18]
  Mean % WT Binding: 127 % WT binding
[19]
  Mean % WT Binding: 115 % WT binding
[20]
  Mean % WT Binding: 117 % WT binding
[21]
  Mean % WT Binding: 106 % WT binding
[22]
  Mean % WT Binding: 1 % WT binding
[23]
  Mean % WT Binding: 83.3 % WT binding
[24]
  Mean % WT Binding: 90 % WT binding
[25]
  Mean % WT Binding: 25.1 % WT binding
[26]
  Mean % WT Binding: 91.3 % WT binding
[27]
  Mean % WT Binding: 117 % WT binding
[28]
  Mean % WT Binding: 124 % WT binding
[29]
  Mean % WT Binding: 112 % WT binding
[30]
  Mean % WT Binding: 100 % WT binding
[31]
  Mean % WT Binding: 124 % WT binding
[32]
  Mean % WT Binding: 107 % WT binding
[33]
  Mean % WT Binding: 13.7 % WT binding
[34]
  Mean % WT Binding: 88.9 % WT binding
[35]
  Mean % WT Binding: 127 % WT binding
[36]
  Mean % WT Binding: 114 % WT binding
[37]
  Mean % WT Binding: 146 % WT binding
[38]
  Mean % WT Binding: 111 % WT binding
[39]
  Mean % WT Binding: 116 % WT binding
[40]
  Mean % WT Binding: 94.7 % WT binding
[41]
  Mean % WT Binding: 96.9 % WT binding
[42]
  Mean % WT Binding: 109 % WT binding
[43]
  Mean % WT Binding: 76 % WT binding
[44]
  Mean % WT Binding: 123 % WT binding
[45]
  Mean % WT Binding: 113 % WT binding
